Targets include αPD-1; αSLAM; recombinant human GM-CSF (human, UniProt P04141 18-144); Strep-tactin.
Holding throughout (test): ELISA
A general note: In an ELISA, binding on a coated surface is turned into a signal by an enzyme label.

Sequence of recombinant human GM-CSF (P04141 18-144): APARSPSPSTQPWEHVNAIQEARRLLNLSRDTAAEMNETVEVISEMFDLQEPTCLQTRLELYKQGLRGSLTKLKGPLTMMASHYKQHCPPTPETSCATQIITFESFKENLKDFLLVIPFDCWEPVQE

B1: C6b (antibody)
heavy: not shown
light: EIVLTQSPGTLSLSPGETAILSCRASQSVSSSLLAWYQQKPGQAPRLLIYGASNRATGIRGRFSGSGSGTDFTLTISRLEPEDFVLYYCQHYGSRVTFGQGTKLEIKRTVAAPSVFIFPPSDEQLKSGTASVVCLLNNFYPREAKVQWKVDNALQSGNSQESVTEQDSKDSTYSLSSTLTLSKADYEKHKVYACEVTHQGLSSPVTKSFNRGEC
As usually defined, the EC50 is the concentration that produces a half-maximal response. As to B1, the EC50 was about 1350 µg/mL with αPD-1, 0.0885 µg/mL in the test with αSLAM and 0.0324 µg/mL in the test with recombinant human GM-CSF.

B2: C5 (antibody)
heavy: not shown
light: EIVLTQSPGTLSLSPGETAILSCRASQSVSSSLLAWYQQKPGQAPRLLIYGASNRATGIRGRFSGSGSGTDFTLTISRLEPEDFVLYYCQHYGSRVTFGQGTKLEIKRTVAAPSVFIFPPSDEQLKSGTASVVCLLNNFYPREAKVQWKVDNALQSGNSQESVTEQDSKDSTYSLSSTLTLSKADYEKHKVYACEVTHQGLSSPVTKSFNRGEC
On to B2, for which the EC50 with αPD-1 was 0.0585 µg/mL; in the test with αSLAM it was about 632 µg/mL; in the test with recombinant human GM-CSF, 0.0515 µg/mL.

B3: C6 (antibody)
heavy: not shown
light: EIVLTQSPGTLSLSPGETAILSCRASQSVSSSLLAWYQQKPGQAPRLLIYGASNRATGIRGRFSGSGSGTDFTLTISRLEPEDFVLYYCQHYGSRVTFGQGTKLEIKRTVAAPSVFIFPPSDEQLKSGTASVVCLLNNFYPREAKVQWKVDNALQSGNSQESVTEQDSKDSTYSLSSTLTLSKADYEKHKVYACEVTHQGLSSPVTKSFNRGEC
Take B3: the EC50 with αPD-1 is about 743 µg/mL; with αSLAM it was 0.0958 µg/mL.

B4: C5b (antibody)
heavy: not shown
light: EIVLTQSPGTLSLSPGETAILSCRASQSVSSSLLAWYQQKPGQAPRLLIYGASNRATGIRGRFSGSGSGTDFTLTISRLEPEDFVLYYCQHYGSRVTFGQGTKLEIKRTVAAPSVFIFPPSDEQLKSGTASVVCLLNNFYPREAKVQWKVDNALQSGNSQESVTEQDSKDSTYSLSSTLTLSKADYEKHKVYACEVTHQGLSSPVTKSFNRGEC
Turning to B4, the EC50 is 0.0371 µg/mL with αPD-1, about 397 µg/mL in the test with αSLAM and 0.0355 µg/mL with recombinant human GM-CSF.

B5: GCE536 (antibody)
heavy: not shown
light: EIVLTQSPGTLSLSPGETAILSCRASQSVSSSLLAWYQQKPGQAPRLLIYGASNRATGIRGRFSGSGSGTDFTLTISRLEPEDFVLYYCQHYGSRVTFGQGTKLEIKRTVAAPSVFIFPPSDEQLKSGTASVVCLLNNFYPREAKVQWKVDNALQSGNSQESVTEQDSKDSTYSLSSTLTLSKADYEKHKVYACEVTHQGLSSPVTKSFNRGEC
For B5, in the test with recombinant human GM-CSF, the EC50 amounted to 0.0492 µg/mL.

B6: C9 (antibody, V domains shown)
VH: DVQLVESGGGVVRPGVSLRLSCVASGFSFKNYDMAWVRQVPGKGLEWVCGINWNGSLRGYADSVKGRFLISRDHAKDSLYLQMSRLRAEDTALYYCARDPGYNTGRDHPYDLWGQGTMVTVSS
VL: DIQMTQSPSTLSASVGDRVTITCRASQSISSWLAWYQQKPGKAPKLLIYKASSLGSGVPSRFSGSGSGTQFTLTISSLQPDDFATYYCQQYNNYPYTFGQGTKLEIKR
Regarding B6, the EC50 in the test with Strep-tactin was 0.187 µg/mL.
